In patent US20080125498:

Experiments:
[1] = test system: N-terminal myc-tagged NR1-1a
[2] = target: NMDA receptor NR1 subunit in adult rat brain membranes (UniProt P35439)
[3] = target: T1, protease-activated receptor 1 (PAR1), mouse, endogenous in hippocampal slices and cultured astrocytes (UniProt P30558)
T1 sequence: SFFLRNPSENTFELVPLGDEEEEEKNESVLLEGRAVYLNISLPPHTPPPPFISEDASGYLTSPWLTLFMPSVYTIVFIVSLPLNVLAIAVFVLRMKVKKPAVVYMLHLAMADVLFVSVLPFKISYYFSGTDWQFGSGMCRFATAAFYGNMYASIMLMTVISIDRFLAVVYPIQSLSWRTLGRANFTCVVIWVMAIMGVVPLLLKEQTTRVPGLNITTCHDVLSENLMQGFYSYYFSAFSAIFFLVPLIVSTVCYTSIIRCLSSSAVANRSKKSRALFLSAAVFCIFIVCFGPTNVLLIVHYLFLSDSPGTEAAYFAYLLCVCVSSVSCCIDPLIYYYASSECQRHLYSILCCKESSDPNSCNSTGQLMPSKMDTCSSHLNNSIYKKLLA

[4] = test system: recombinant NR1-1b subunit transiently expressed in HEK 293 cells
[5] = target: endogenous plasminogen in mouse brain slices (UniProt P20918)
Chain of endogenous plasminogen in mouse brain slices (P20918 20-812): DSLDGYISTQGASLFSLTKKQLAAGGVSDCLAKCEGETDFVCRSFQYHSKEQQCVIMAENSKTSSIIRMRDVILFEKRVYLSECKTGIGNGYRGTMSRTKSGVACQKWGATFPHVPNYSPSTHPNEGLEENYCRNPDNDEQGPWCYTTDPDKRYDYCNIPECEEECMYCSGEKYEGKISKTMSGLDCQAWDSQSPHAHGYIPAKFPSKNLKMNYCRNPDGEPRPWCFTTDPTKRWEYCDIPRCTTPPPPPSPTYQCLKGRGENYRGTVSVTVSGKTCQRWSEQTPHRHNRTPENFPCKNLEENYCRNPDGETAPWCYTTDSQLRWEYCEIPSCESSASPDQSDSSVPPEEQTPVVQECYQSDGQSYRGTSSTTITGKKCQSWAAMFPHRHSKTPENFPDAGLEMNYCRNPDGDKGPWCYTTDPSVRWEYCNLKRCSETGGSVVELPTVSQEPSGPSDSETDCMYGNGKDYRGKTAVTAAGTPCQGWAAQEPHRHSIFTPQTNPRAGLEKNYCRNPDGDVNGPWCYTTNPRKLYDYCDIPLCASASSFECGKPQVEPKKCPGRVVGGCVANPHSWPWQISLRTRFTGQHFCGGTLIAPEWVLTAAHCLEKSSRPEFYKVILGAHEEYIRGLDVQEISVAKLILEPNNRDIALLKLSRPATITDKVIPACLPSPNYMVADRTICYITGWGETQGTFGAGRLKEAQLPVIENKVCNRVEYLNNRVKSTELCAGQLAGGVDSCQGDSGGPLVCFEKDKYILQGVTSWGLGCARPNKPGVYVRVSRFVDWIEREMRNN

Chain of tissue plasminogen activator (P00750 36-562): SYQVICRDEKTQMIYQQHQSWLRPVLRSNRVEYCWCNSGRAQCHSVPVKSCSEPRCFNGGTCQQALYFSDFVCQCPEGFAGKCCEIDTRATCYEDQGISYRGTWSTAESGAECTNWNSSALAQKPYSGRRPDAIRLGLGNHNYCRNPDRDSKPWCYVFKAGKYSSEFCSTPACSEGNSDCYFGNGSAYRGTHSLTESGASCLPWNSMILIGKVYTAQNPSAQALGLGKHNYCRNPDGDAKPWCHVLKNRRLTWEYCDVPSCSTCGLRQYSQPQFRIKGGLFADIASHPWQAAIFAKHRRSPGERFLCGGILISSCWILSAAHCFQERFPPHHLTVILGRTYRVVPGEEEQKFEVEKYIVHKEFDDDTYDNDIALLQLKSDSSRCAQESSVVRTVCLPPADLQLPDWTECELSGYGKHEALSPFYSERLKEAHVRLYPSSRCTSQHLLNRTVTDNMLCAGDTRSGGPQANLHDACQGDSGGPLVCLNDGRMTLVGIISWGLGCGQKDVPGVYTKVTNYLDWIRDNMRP

Substance	proteolysis of myc-tagged NR1-1a (immunoblot) [1]	NR1 cleavage product in CA1 region after 15 minutes of 3 U/ml thrombin on slices [2]	maximal percent of NR1 cleaved, striatal membranes [2]	percent of NR1 cleaved, all brain regions except striatum, 1-3 micromolar thrombin [2]	percent of NR1 cleaved, cerebellar, cortical and brainstem membranes, 300 nM thrombin [2]	percent of NR1 cleaved, hippocampal membranes, 30 nM thrombin [2]	percent of NR1 cleaved, striatal membranes, 30 nM thrombin [2]	proteolysis of NR1 (immunoblot) [2]	PI hydrolysis in hippocampal slices [3]	proteolysis of recombinant NR1-1b (immunoblot) [4]	PI hydrolysis after tPA application to hippocampal slices [3]	PI hydrolysis in hippocampal slices [5]
alpha-thrombin	Thrombin induced a similar shift in molecular weight for N-terminal myc-tagged NR1 as observed for the recombinant and native receptors detected with mAb54.1	no NR1 cleavage product was observed in immunoblots of membranes obtained from the CA1 region microdissected immediately following the experiment	the maximal observed cleavage of 52% suggests a thrombin resistant population of NR1 subunits exists	1-3 micromolar thrombin cleaved 100% or subunits in all brain regions except striatum	cerebellar (n=7), cortical (n=5), and brainstem (n=5) NR1 subunits were insensitive to cleavage by 300 nM thrombin (30 U/ml)	30 nM thrombin (3 U/ml) cleaved 20% of the NR1 subunit in hippocampal membranes (n=7)	50% of NR1 in striatal membranes (n=10)	Incubation of brain membranes with thrombin for 1 hour at 37 °C resulted in the appearance of a new band that was 12 kD (n=10) lower in molecular weight than the parent band	Both thrombin and plasmin increased PI hydrolysis in wild type hippocampus, but not in the hippocampus of PAR1-/- mice	10-1000 U/ml of thrombin cleaved both homomeric NR1-1b receptors (n=9/10 experiments) and heteromeric NR1-1b/NR2B receptors (n=6/6 experiments)		
plasmin									Both thrombin and plasmin increased PI hydrolysis in wild type hippocampus, but not in the hippocampus of PAR1-/- mice		Application of tPA to wild type hippocampal slices significantly increased PI hydrolysis compared with application to PAR1-/-hippocampal slices	
tissue plasminogen activator												application of tPA did not increase PI hydrolysis in plasminogen-deficient mice
